Test results as given in article PMC5462737.

How the values were obtained:
[1] = molecular target: F1Fo ATP synthase from E. coli, labeled with ATTO 594 (E. coli) (UniProt P0ABB4)
[2] = molecular target: F1Fo ATP synthase from E. coli, labeled with ATTO 594 (E. coli) (UniProt P0ABB4); remark: listed apart in the source

Chain of UniProt P0ABB4 (P0ABB4 whole entry, looked up): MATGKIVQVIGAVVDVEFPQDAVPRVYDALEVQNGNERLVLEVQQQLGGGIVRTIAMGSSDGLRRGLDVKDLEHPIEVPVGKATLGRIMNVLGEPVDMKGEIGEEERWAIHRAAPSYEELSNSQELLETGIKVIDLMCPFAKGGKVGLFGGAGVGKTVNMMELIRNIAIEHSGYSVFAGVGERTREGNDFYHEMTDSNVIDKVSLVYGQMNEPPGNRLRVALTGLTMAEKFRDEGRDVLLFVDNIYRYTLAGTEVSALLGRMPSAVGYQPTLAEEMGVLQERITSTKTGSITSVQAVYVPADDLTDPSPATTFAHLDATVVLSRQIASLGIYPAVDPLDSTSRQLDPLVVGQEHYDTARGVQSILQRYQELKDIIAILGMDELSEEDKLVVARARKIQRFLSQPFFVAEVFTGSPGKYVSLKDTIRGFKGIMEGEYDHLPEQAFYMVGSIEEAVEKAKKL

| coupled activity (ATP-synthesis rate driven by proton pumping of cyt. bo3; luciferin/luciferase luminescence) in 100 nm DOPC vesicles, relative to unlabeled proteins [1] [fold] | normalized ATP-synthesis rate in 100 nm DOPC:DOPG vesicles, 0-40% DOPG, relative to 100% DOPC; value at 60% DOPC [2] [%] | coupled activity (ATP-synthesis rate driven by proton pumping of cyt. bo3) in 100 nm DOPC vesicles, increase relative to unlabeled proteins [1] [fold] | Substance |
| --- | --- | --- | --- |
| 5 | 60 |  | cytochrome bo3 (ubiquinol oxidase) from E. coli, labeled with ATTO 647N (complex) |
|  |  | < 2 | cytochrome bo3 (ubiquinol oxidase) from E. coli, labeled with Abberior STAR 635 (complex) |
